Reference: a protein production outcome set (Wang et al. 2014)

Assay: label from the status in PepcDB records

Sequence	protein production
TLEQLPSAQSTLVSLDANNGALRALVGGFSFTANKFNRATQARRQPGSSFKPFVYSAALEKGFNPASIVPDAPVIFRDRRGHTWSPQNDDGKFQGPMRIRDALVQSRNLVSVRLLDAIGIDFARNYITQFGFEENEIPPNLSMSLGTASLTPLSIARGYAVFANGGFRIDPWLIDEIHDREHKLIFKNNPKVACSSCTSANTNVTQSTSHLVDGFNFGAPTKTEPSKPVKNNNEPTQTIPSPDPNTPMAPRAIDERVVFQLVSMMRDVVLRGTATAARSLNRQDIAGKTGSTNEHRDAWFSGFGGPYVTTVWVGRDDFQSLGYREYGGKAALPIWIEYMRTALKDKPIARN	failed
TLEWPELLQQCEQLNKPNQINLNPALLWQCQGVGSAPPASNLRESRIKAVLAINPVTNPIFGPDGMKNLAVPTLIVAGSKDIFAPPVPEQIIPFSLIEGVNKYLLLVQNGTHLSFLEDTDNLPEKIVGPGQDLAYTYMKSLGLAFFDLYLQQDSSFKPYLTDSVVQQMSQEPLPLQLVPSL	failed
TLGKETKTTVHKFGLEPPSELIQKQLRANLDDDIWEVIRSRKIDGEHVILDKDYFFRKHVPHLTKEICENSIYEYIEGELGLSISYAQKEIVAEPCTDEDRELLDLRGYDHMVVVRNYVFLEDTSLFQYTESRHRLDKFRFVDFARRGK	not failed
TNPQAVIGDSPTTSATQSKAVVVEFSDFQCPYCAKAHDTLKQLLAKHPGEITLVYKHLPLIPIHNEAMPAAKAAWAATQQGKFWEYHDALFSNQKQLGEALYLDIAKKLNLDLEKFNSDRLLADAAISKDIQIAQKLAIAGTPFFIMNSKTFSGGIDLSEIENKL	failed
TPLLAILFIAQVSGSGRRVGVVGWPDLNYAGVLGYGGCYERIFAVPQQERTSLRVVTALAHGCDLVITRAGPTPRTYTPLQTQRFRNSLRSDAGCVIMMGDHVVSPAARLASAVVGYHGIGKGTGRIKAVEITVTGIAKGFYRTSRVIVGKHIAPAAEKTTMK	failed
TRRIMQLVFTDVTKHKEYEETLRKEQQVVQDILDFQSSIVLVAGSDEGVLSANRSALDFFGFRDVKEFRMHYRCICEAFIDREGFLKNRHEAWLHEALLANQTGRDSKAIIKDRHSGEERIFVVKVGRYPRDSHKFIVSLTD	failed
TSKQRYSGKVHLCVARYSYNPFDGPNENPEAELPLTAGKYLYVYGDMDEDGFYEGELLDGQRGLVPSNFVDFVQDNESRLAST	not failed
TSVKEFAMKHDHFVVQSPDKPAQQLLLLFHGVGDNPVAMGEIGSWFAPLFPDALVVSVGGAEPSGNPAGRQWFSVQGITEDNRQARVDAIMPTFIETVRYWQKQSGVGANATALIGFSQGAIMALESIKAEPGLASRVIAFNGRYASLPETASTATTIHLIHGGEDPVIDLAHAVAAQEALISAGGDVTLDIVEDLGHAIDNRSMQLALDHLRYTIPKHY	failed
TVASRLSDTKAAGEVKALDDFYKMLQHEPDRAFYGLKQVEKANEAMAIDTLLISDELFRHQDVATRSRYVRLVDSVKENAGTVRIFSSLHVSGEQLSQLTGVAAILRFPVP	not failed
TVDLNMQRRAEETVQKAFQQARSRGLRADQIAVAAVDPRTHFVKVLVGGRDYEESQFNRAIQSQRQPGSAFKPFVYYSAFASGNYTPFSTIDDSPVSYPDGNGTYSPQNYGGSFSGTVSLYDALVTSKNVPAVKLGKAVGLEKVIELCRLLGIESPLQPVISLPLGAVGISPLEMASAYATFASNGWQSETTLILRVTDSQGNVLLDNTPQPRLVLDPWATASLTTVLQGVVNGGTGQAANLGDRPAAGKTGTTSSERDVWFVGYVPQLAAAVWIGNDDYRPMGTGTTGGGDAAPIWRAFMQEALKGEEPQYF	failed
TYWDVDFPRLDQRDSTLTEADHIANVRAALLEAVEMRMVADVPVGCYLSGGIDSCSILGLASAVSQGPVKAFTIGFDDARYDETPIAAEMAEATGAEQDVMRLSGRELYGHMEQTLWHTERTIYNTLAVAKYLMSRHVNSVDYKVVMTGEGSDELFGGYPAFRRDMFLHGLEDLPQSDRQDWESLLQTNNSLVQGAMLAADQVDDPDLDAVVGFTPSCLQPWLACAPLVPDLLADEHRQALVEYSPGKAIAEQLNPQQLDGRHALDKAQYVWIKTMLEGQILTWGGDRVDMANSMEARPAFLDHHLAAAAVQVPPELRIKGKTEKYVLREAMAGLLPEVLYKREKFAFMAPPAHTEPEKWAQMKQLADDYLSDEAIDAAGLLSKEGVRALFARHDDPATTDAERVQMDAVINHLLG	failed
VAGKVEARKAALREKLIDLAEAQIEAEGLASLRARELARQADCAVGAIYTHFQDLNALTLEVNGRTFARLGAAVGAVVADGQDDHPNERLIAMSHAYLAFAREHPKLWRALFDVEMRSDGPVPQWYGHAMAQLFSYITTPLAKIFPESDDAELDLMTRTLFSSVHGIVLLGLENRISGVPGEQLKTMIRLLLEQVGR	not failed
VAITDNRGVITHVNEKFCDISQYEYYELVGTTHKIINSGFHPRSFFKQMWKTIAQGNIWKGEICNRTKQGKLYWVDTTIVPLKDNDGLLKNYISIRTDITQ	failed
VFEQELENGLRLFIIPKPGFQKTFVTYTTQFGSLDNQFKPLGQDQFVTVPDGVAHFLEHKLFEKEEEDLFTAFAEDNAQANAFTSFDRTSYLFSATDNIENNIKRLLTMVETPYFTKETVDKEKGIIAEEIKMYQEQPGYKLMFNTLRAMYQRHPIRVDIAGSVESIYDITKDDLYLCYETFYHPSNMVLFVVGDVNPEEICRIVKQH	failed
VINQVESASKVIDWPLALKRSANKADLAKEMLLGLVESLPETQLSIREAIDVQDIAQIKRLVHKLNGACCYTGTPNLAKITIQLETQLKMGLSTEELEPEFLEFFEHIEQVLFAVPEALKEMSEN	failed
VIRDLQKLLASMEPSLNPGTYAFVVAPADIQIPQDQIVASVCEPEGQSLVIPEQLAHERGLPVTYSAAWITLTVHSDLAAVGLTATFAGALGQAGISCNVIAGVHHDHLFVPADQAQQAMAVLFDLQRAAA	failed

Sequence	protein production
VKLVEEYIAANWNESLTIEKLVELTGMSARTVFKAFQRTRGYSPMAFAKRVRMERVRQLLLEAGGDASVGAIAVQCGFPHLGHFAKDYRKTFGENPSDTLARGRRFRGVR	not failed
VKMSDKWIEIEEILSGLIGDLTIAVTVLKDYEGKAFLREPQHQTKRQCIWRLCVYSIVINCRKYVELNQKYGKEFQALIPGHNHIRGVYNNEINKNTAIKKLRNHCVAHVSDKSKYLKPAEVQEEIIKMFDGNFADEFLDWICPDNISTTDKSESLVGVIELLRDAVSAKL	not failed
VLEVTQKATPNPSLLAAEDQVPCEKCGSLVPVWDMPEHMDYHFALELQKSFLQPHSSNPQVVSAVSHQGKRNPKSPLACTNKRPRPEGMQTLESFFKPLTH	failed
VLTMPLVTSISQLNEPITLVSYTMGNVNGVPVNNVRKEHFTTWALVLSQYLSEVKASVGTKLEDTVTFVVRYDQPETILNSWRIEWQEKQYDIVKLTPDTAKKQWTTIIGKPVANK	not failed
VPRIAEVRDAAEPSSEEQRARHVRMLEAAIELATEKELARVQMHEVAKRAGVAIGTLYRYFPSKTHLFVAVMVDQIDRMGVGFKKSAPPGESPQDAVYNVLVRATRGLLRRPALSTAMIQSTSTANVASVPDAGKVDRAFRQIMLDAAGIEHPTEEDLTALRLLVQLWFGVIQSCLNGRVSIPDAESDIRRACDLLLVNLSHR	not failed
VQSKNPVLIEGFPGIGLVGNIASQHIIEELNMEYIGSIDSRYFPSIAVLYEGLINMPVRIYENVEHNLIIVISDIPISHSVSYDVSNALVDWAEAINVKEIASIAGIAIMDGGHKVFGAATTPEMLDKIRDKVEIFQMGTISGISGSVMAECLLRGIPAISLLGATRTQNPDPRAASSVIGVLNELYGLSISTDRLIEQAERIEIELQRLAEDVQATERKGEVKKEFPMYG	failed
VRLRNLVESDRERLLIWRNSPDVSAYMYSDHKIGHEEHDHWFDVARHDPRRRYWIIEADGEPVGLANLADIDLVHRRCAWAYYLASPKVRGLGVGSFVEFQIIEYVFNQLHLNKLWCEVLISNESVWRLHELYGFQREALFRQHVMKQGHEVDVIGLGLLASDWAARR	failed
VTGDRAGGRSWCLRRVGMSAGWLLLEDGCEVTVGRGFGVTYQLVSKICPLMISRNHCVLKQNPEGQWTIMDNKSLNGVWLNRARLEPLRVYSIHQGDYIQLGVPLENKENAEYEYEVTEEDWETIYPCLSPK	not failed
VTGSIRSKLSAIDVRQLGTVDYRTAWQLQRELADARVAGGADTLLLLEHPAVYTAGRRTETHERPIDGTPVVDTDRGGKITWHGPGQLVGYPIIGLAEPLDVVNYVRRLEESLIQVCADLGLHAGRVDGRSGVWLPGRPARKVAAIGVRVSRATTLHGFALNCDCDLAAFTAIVPCGISDAAVTSLSAELGRTVTVDEVRATVAAAVCAALDGVLPVGDRVPSHAVPSPL	not failed
VTRAIILAHGYATASSIANVANRLLKSQLFESFDMPLDVTPEAIANQVMAYIESHALASGLIILVDMGSLNAIHRHFNRRLSTPMAIINNVSTGMAMYVGERILQGVMLEDIVREIGDDLAVEHQLYYPQTDKP	failed
VVEFTTCPDKPGIPVKPSVKGKIHSHSFKITWDPPKDNGGATINKYVVEMAEGSNGNKWEMIYSGATREHLCDRLNPGCFYRLRVYCISDGGQSAVSESLLVQTPAV	not failed
VVENYETQFVTFVESEMEQDLAHDLNHVFRVVKTAKLLSKIEGAMLEVVLPAAYLHDCFSFPKNHPNKAESSRIAADKALEFLNEIGYPNEYHDAIKHAIIAHSFSAKVQPDTLEAKVVQDADRLDALGAIGIARCIQVSTNLGVGLYDATDPFCGTREPNDRVNTVDHFYTKLFKLPEIMHTASAKVEAEKRMKFMKAYLIQLGMEIEPYS	failed
VWWQLHYGPHPDERELDLEGWTTRVLDATRDAVAIRQRAAVDVGVLLSGGVDSSLLVGLLREVGVDDLSTFSIGFEDAGGERGDEFQYSDLIAKHYGTRHHQLRIAEHEIIDQLPAAFRAMSEPMVSHDCIAFYLLSREVAKHCKGVQSGQGADELFAGYHWYPQVDGADDAYAAYREAFFDRSHAEYRDTVQAPWLLETDAAGDFVREHFARPGAPAAVDKALRLDSTVMLVDDPVKRVDNMTMAWGLEARTPFLDYRLVELSARIPARFKLPDGGKQVLKQAARRVIPHEVIDRKKGYFPVPGLKHLEGATLGWVRELLTDPSQDRGLFNPTMLDRLLSNPHGQLTPLRGSKLWQLAALNLWLS	failed
WLDDGKNGGQLGSVEASAVYRNTQVFGEAAYATEPGALSWICGVQSDLAKGITGVVSMRDYAFEYYSPFAGAFAERGDNASNESGLYLGLKAKVRDNLTLAGLYDRFRFPVLDKRYYVYPSSGYEARFYATWKQNRWMTWDAMYQHKEKEEAKKQFDSNIGTSRYIPVPKITNRVQLGLVVECSPGITLKSRAAFKSLRSHFVTGAESEEGWLLYQQINLKRGPFTLKTRLARFDTDSYDVALYAYEDDLPLVYMLNAYYGRGKAWFIVLDFEPVKNFNLTAKYETTWYDDRDVYSSGNDLRNTSSPGSYHVGCMLKF	failed
WQGLSSKGDLPQVEITKAFFAKQADEVTLQQADVVLVLQQEDGWLYGERLRDGETGWFPEDFARFI	not failed
WYEDGLVCTLAYQNHRAPLVFIIAGTGASHNTPRMVKLRSALYQGGFHVISLTSPTHMDFVVNASSGLPGDPLDDARDLYRVMEMAYDAVRDTIDVSGFDLAGYSLGAFNAAFVARLDEEEKRFNFSKVLLINPPVSLYESVAALDQLLVENVPQGMEQFDAWFRSVFAEFSHVSREVGPGSLSGDFIYSAYKRFPPNEENLAALIGLSFRMSAANMIFTADVMNGGGYIVPRNARLTATSSLTRYATVSLHTRFTDYFDEWFFPNRRHREPSLTRQALLARMSLRSQEAYLRNADKVGLIHNEDDIILAPGDIDYLQGVFGGRARLFPTGGHMGNMFHPDVVSFMIDFL	failed
